The record followed here is patent publication US20220259322A1.

What is called Kd is the equilibrium constant for the complex coming apart. A word on the koff: it is a measure of how fast the partners let go of each other. One may read the kon as the second-order rate constant of association. By EC50 is commonly meant the concentration at which the effect is half-maximal.

For assay [1], the target named is recombinant GRP78 full length protein (UniProt P11021). As to the kind of experiment: Biacore, recombinant full length GRP78, scFv1183-Fc from 500 nM in two-fold dilutions. A general note: Surface plasmon resonance follows binding to a sensor surface in real time, without labels.
Sequence of recombinant GRP78 full length protein (P11021 19-654 limits assumed): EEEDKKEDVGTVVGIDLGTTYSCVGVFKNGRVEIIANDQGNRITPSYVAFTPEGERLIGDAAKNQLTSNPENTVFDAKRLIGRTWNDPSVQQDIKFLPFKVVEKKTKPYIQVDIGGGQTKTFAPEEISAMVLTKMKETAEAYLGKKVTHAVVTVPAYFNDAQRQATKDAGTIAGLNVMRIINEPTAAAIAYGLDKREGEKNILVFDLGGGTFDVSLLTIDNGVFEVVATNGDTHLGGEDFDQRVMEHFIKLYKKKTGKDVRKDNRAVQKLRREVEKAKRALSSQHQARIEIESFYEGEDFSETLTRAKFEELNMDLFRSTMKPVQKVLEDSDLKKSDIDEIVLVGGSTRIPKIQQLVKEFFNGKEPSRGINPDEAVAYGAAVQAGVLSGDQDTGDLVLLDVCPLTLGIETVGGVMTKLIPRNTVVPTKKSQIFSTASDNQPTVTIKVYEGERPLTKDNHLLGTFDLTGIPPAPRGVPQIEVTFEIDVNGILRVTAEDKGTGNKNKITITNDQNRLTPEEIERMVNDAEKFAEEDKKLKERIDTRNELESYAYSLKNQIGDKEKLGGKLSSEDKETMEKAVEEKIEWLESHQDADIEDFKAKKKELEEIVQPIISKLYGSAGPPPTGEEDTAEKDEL
The target in assay [2] is 78-kDa glucose-regulated protein (GRP78) (UniProt P11021). As to the kind of experiment: flow cytometry, irradiated A549 cells, % of positive cells, 4PL fit. In general terms: A flow cytometer gives signals particle by particle.
Sequence of 78-kDa glucose-regulated protein (GRP78) (P11021 19-654 limits assumed): as above
Assay [3] addresses recombinant GRP78 full length protein (UniProt P11021). The assay can be described thus: Biacore, recombinant full length GRP78, scFv1171-Fc from 500 nM in two-fold dilutions.
For assay [4], the target named is 78-kDa glucose-regulated protein (GRP78) (UniProt P11021). The assay can be described thus: flow cytometry, irradiated A549 cells, gMFI minus secondary only, one site-specific binding fit.

B1: anti-GRP78 scFv-Fc 1183 (Fc fusion, part only; not given: Linker, domain order, Fc, not shown: another chain or arm of the molecule; a dimerising Fc or GST; small tags and cut ends)
VH: QMQLVQSGAEVKKPGSSVKVSCKASGGTFSSYAISWVRQAPGQGLEWMGWISAYNGNTNYAQKLQGRVTMTTDTSTSTAYMELRSLRSDDTAVYYCARDPPLRYFDWFRGSDWFDPWGQGTLVTVS
VL: NFMLTQPHSVSESPGKTVTISCTRSSGSIASNYVQWYQQRPGSSPTTVIYEDNQRPSGVPDRFSGSIDSSSNSASLTISGLKTEDEADYYCQSYDSTNGVFGGGTKLTVL
B1: in assay [1], the dissociation constant Kd was determined as 8.4 nM, the off-rate constant (koff) stood at 0.00793 s⁻¹ and the kon was 944000 M⁻¹ s⁻¹.

B2: anti-GRP78 scFv-Fc 1171 (Fc fusion, part only; not given: Linker, domain order, Fc, not shown: another chain or arm of the molecule; a dimerising Fc or GST; small tags and cut ends)
VH: QVQLVQSGAEVKKPGSSVKVSCKSSGGTFSNPVISWVRQAPGQGLEWMGGIITMFGTTYYGNSVRGRFIVSRDNSKNMLFLQMNSLRAEDTAVYYCAKDPPMFDYWGQGTLVTVS
VL: DIQLTQSPSSLSASVGDRVTITCRASQSISSYLNWYQQKPGKAPKLLIYDASNLETGVPSRFSGSGSGTDFTFTISSLQPEDIATYYCQQYDNLLALTFGGGTKVDIK
In the case of B2, in assay [2], the EC50 was 16.8 nM. Besides, in assay [3], the Kd is 4.77 nM, the dissociation rate constant (koff) turned out to be 0.00324 s⁻¹ and the kon was 679000 M⁻¹ s⁻¹. The same molecule had a Kd in assay [4] of 18.7 nM.
